“And” between values parts separate entries of the source, which are not always exact repeats. Equal values may be shown once.
B1: VapB3 antitoxin (natural protein)
chain: MLSRRTKTIVVCTLVCMARLNVYVPDELAERARARGLNVSALTQAAISAELENSATDAWLEGLEPRSTGARHDDVLGAIDAARDEFEA
B2: VapC3 toxin (natural protein)
chain: MRASPTSPPEQVVVDASAMVDLLARTSDRCSAVRARLARTAMHAPAHFDAEVLSALGRMQRAGALTVAYVDAALEELRQVPVTRHGLSSLLAGAWSRRDTLRLTDALYVELAETAGLVLLTTDERLARAWPSAHAIG
B3: VapB35 antitoxin (natural protein)
chain: MNEVSIRTLNQETSKVLARVKRGEEINLTERGKVIARIIPASAGPLDSLISTGSVQPARVHGPAPRPTIPMRGGLDSGTLLERMRAEERY

Key:
VapC35 toxin [1] = biological target: T1, VapC35 toxin (M. tuberculosis, UniProt P9WF67 1-135); assay: MST
T1 sequence: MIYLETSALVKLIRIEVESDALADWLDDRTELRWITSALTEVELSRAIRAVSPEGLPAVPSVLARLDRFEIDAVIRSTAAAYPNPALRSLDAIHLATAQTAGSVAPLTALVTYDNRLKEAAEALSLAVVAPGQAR

VapC3 toxin [2] = biological target: B2; assay: MST
VapC35 toxin [3] = biological target: T1, VapC35 toxin; assay: SEC-MALS
VapC3 toxin [4] = biological target: B2; assay: SEC-MALS
SEC-MALS = biological target: the molecule itself; assay: SEC-MALS

Binder	Kd (VapC35 toxin [1]) [nM]	Kd (VapC3 toxin [2]) [nM]	stoichiometry N (VapC35 toxin [3])	stoichiometry N (VapC3 toxin [4])	stoichiometry N (SEC-MALS) [subunits]
B1	~14	~7	0.5 antitoxin chains per toxin chain (2:4) and 1 antitoxin chains per toxin chain (4:4)	0.5 antitoxin chains per toxin chain (2:4) and 1 antitoxin chains per toxin chain (4:4)	–
B2	–	–	–	–	2
B3	1	–	0.5 antitoxin chains per toxin chain (2:4) and 1 antitoxin chains per toxin chain (4:4)	–	–

— article PMC11868609 (Communications Biology, 2025)
